Test results published in the DeepSol protein solubility set.

test: soluble on expression in E. coli; label from the status in PepcDB or PDB records

Sequence	soluble on expression in E. coli
MPRFAANLSMMFTEVPFIERFAAARKAGFDAVEFLFPYNYSTLQIQKQLEQNHLTLALFNTAPGDINAGEWGLSALPGREHEAHADIDLALEYALALNCEQVHVMAGVVPAGEDAERYRAVFIDNIRYAADRFAPHGKRILVEALSPGVKPHYLFSSQYQALAIVEEVARDNVFIQLDTFHAQKVDGNLTHLIRDYAGKYAHVQIAGLPDRHEPDDGEINYPWLFRLFDEVGYQGWIGCEYKPRGLTEEGLGWFDAWRGS	soluble
MSLREEIKVAVLRMEGTNCEDETVKAFRSLGVEAEAVHIKQFYSDMIRFEEQRSVFDYQCLVFPGGFSAGDYIRAGAIFSARVKSVLRKDIEEFIKMGYPILGICNGFQVLVELGALPGFDEDKPLAEKPEMALAMNDSSRFECRPTLLKKESEKCIFVKNLKKDVVMFPVAHAEGKVVFPSGKEDEYLERLTSNDQIVFRYVDEKGDYAGYPWNPNGSFYNIAGICNATHTVFGLMPHPERAFFGYQVGRREGYGDGYCIFRSVVDYLEEGHHHHHH	not soluble
MGSDKIHHHHHHMPKRFEWLFYAFIAFALYSCNGSSRGKGTEVETVSIDTADFNFPVRFEYAKGIQTVNHTGYKTVYIFHPDKPDTMAVYILYPRDSKRPVARHPKALYIPVPARTIACLSTTQIGSLPLLDQTDKLVGCINLKNICNADIRNRIKKGYVQEIGTGMTKNIEQIAGLRPEILLQDLFHVSDKDEELIASGINTVLYNEWKERDLLGRAEWMKLTAMLLSCNRRAHEVFEQIESEYAEARKLVAEKTDTIAIMYGQDYNGTWYLPGEYSYSTAMFRDARVSFDYAAGKVSSQPCSFEYIFSRHRHAEIWICTMMGNIKTMDEFLALNERYRHFDATQTGKVYIDRKRVNENGGNDYWESGLYRPDLLLKDIIKITRPELLPEYETSYWIELKRP	not soluble
MKVRNVIIGFMVASLTGCSMGHRDPVEIKQTLDKSINENGGLLLADLPASVQADLMPELNTPHVEVEEPVKRFRVRANGVGAKAFFTSLVKGTEYSVVIHPQVSGRITMNLSDVTMDDVLSSVEDLYGYDIVKAGKVLQVYPATIRTETIPVDYLQLTRKGRSLTTITTGSITNSDNNSSNNNNSSSKSNNNSSSSSSSATGGTEIETTSESDFWKELETAISVMIGNGADRSVVVSPQASVVTITASPDELRKVKQFLGTSHKRLQRQVILEAKLLEVTLSDGYQQGINWSNLTASLGGTDVVFGQTSGLVQGALPGMDTIGTLLGGQTNITVSDGNFQAVLSFMDTQGDLNVLSSPRVTAANNQKAVIKVGRDEYYVTEVSSVTGSGDNSNASPEVTLTPFFSGISLDVTPQIDDKGNVMLHVHPSVIDVENEVKEIDLGDVGGVLKLPLAKSSIRESDSVIRAKSGDVVVIGGLMKSQTVDQVSKVPLLGDVPALGHLFRNVSQLTQKTELVILLKPTVVGVDTWQEELERSRDLLQEWFPDELEHHHHHH	soluble
MENMIVIMAGGRSSRMGAEKPILKVNGKPMILRVYEESTKVGETLVAISKNTPKTRELCIKEGIPLIETPGEGYVEDVRYLLKELGSFVSVSADLPFVKACDIAEVKKAFDGKTSLTGVLPLSKVPTDLRPVVYKGYVIVGLNGVGFEGEKFYELSNPLLALNVNTPEELKLANRIAKLIGLEHHHHHH	not soluble
MGSDKIHHHHHHMVSMIKTAQGYSSELTRDQSELTQFWSQVQQESLAIEPGITLAYGFIRHEDNRRAIVISNGRVESYLKYQELIYDCYQQGFSVYALDHRGQGLSSRLTTNPHQGHVEHFSDYVDDFKVFIERVVKPERHKELFLVGHSMGGAIATHYIHQDPTTFNAAVLSAPMYGIILPLPTVVIKQLATKMINTQPVIGSHLVATNYIIGGRDYQAISFKLNQLTHSQVRYQHYRDLYQQQPQCQLGSPTNQWLAEAIDAAKASIDMARGSPIPLLILQAGKDKIVCNQAQNKALAGLCQRIIIEGAFHEVFIETDKLRDKALKALFDFINQHSEII	not soluble
MGSNELFTRSVYMQSSVYSNNSKSSTSSSSSNSIPTQSAPAMNAASSPSKEPAKQEKEDDKKEVEEKKEIEKSVEAKVEGKVKAKVESTQNTDNSQELKAPEEKPKKKKKKKSNLIVSASVEKLSIVPEKEDFSILEKKLREFNFYHGFLPREDLHTTLHNPGDFLLRVSEVVEGEHKVNREVILSLIPVSTVSKDEEDRKKVRNVVIKRVTNLFFCEITRTFESISDLVTYYTKNPGGCASGTFQLKHPILQQSWEFMHSDVTVGKVLGEGAFGKVCSGTLKLKDGTNVDVAIKMTKVSAFLSKMKIKEMMNEARFIRNFNHKNVVRLYGVAHHEQPLYILLELVKGGSLQDHMKKEKGAVSIVEKIKFCSGAGRGIEYLHQNNCIHRDIAARNCLLHEKEVKITDFGLSRTGPVYKMKTACKLPVKWLAPETLSTLSFSFATDTYSWGVTCYEVFADGVEPFFGIQNSVVKTDILANKFLQMPPTTPESIKKYMEASIFVEGSRRATMTSAIAEFEKIKSALERPPSDMLSVGAGAKKVMKLLKRNKQEKYSKGD	not soluble
MRNEMHLQFSARSENESFARVTVAAFVAQLDPTMDELTEIKTVVSEAVTNAIIHGYNNDPNGIVSISVIIEDGVVHLTVRDEGVGIPDIEEARQPLFTTKPELERSGMGFTIMENFMDEVIVESEVNKGTTVYLKKHIVKSKRYLEGSSF	soluble
MGSDKIHHHHHHMSELPNSHATTLLAAPDTEIDVRETFGIDIDMKVPAFSRADERVPDRDDTYVFDPDTTLAILAGFAYNRRVMVQGYHGTGKSTHIEQVAARLNWPCIRINLDAHISRIDLVGRDAIVLRDGLQVTEFREGLLPWALQTPTALVFDEYDAGRPDVMFVIQRVLETEGKLTLLDQNRVIRPNKFFRLFATANTVGLGDTSGLYHGTQAINQGQMDRWNLVVALNYLPEATEVEIVTKKVPDLDPKIVTDMVRVANLTRQGFINGDISTVMSPRTVISWAQNSQIFNDVGFAFRLSFLNKCDETERVLVAEYYQRVFGKDLPESVAHRG	not soluble
MATRPKTIWESFLSPVVRFLMDEDKWRRYAQSIDWEKESDRFRRTDVIIPSYYTSQNFHGIEGGYLNSSAAVTYDPITEYVLPPNETLVRQALIDGVKVQPRRILDLGCGTGSTTLMLKQAFPQADVIGLDLSPYMLVRAEDKARTADLDISWRHGNAEKTSFPNASFDLVTTSLLFHETPVEVSQTILQECFRLLVAGGQVIILDGNQKSLRQLNWLNDIFEEPYIREYAADNLDARMGAAGFVGVQTEDLWLIHQVTSGIKPILATDTNQIKDRQYMPAIDNNNLEGLESPAFGIVALEHHHHHH	not soluble
MTDKSKTEKLISSDDKQSVIDGILDMVFNSKAYEVPWISEKLMELSKNKDLDIAGLSLTCFGHLARLHSNIGDYDKVIPLLHSKQDDPELQGRAEDALEDISLFLSENH	not soluble
MSLARELRKGKSNAIGMLFGDPSSGFQSRLHHAALQACNDAGYFLTAGLFREEEDNWDEQLTQFLNRTSIEKMILVPPLCGSTALHDRLIEQGASFVLVSPSRAVAVAHAVCMDDRRAAREITEHLLGLGHRRIAHITGPSDHAATRLRREGFEDAMRAVGDGALRPDWIRPGLFRFKPALECARQILTGPDRPTAIFAANDEMAAAVCFAANSLGLRVPDDLSVVGFDDVAIATTMWPPLTTVAQPYAQMARESVRLLTEVGPPGDAGQAAEKVTIDHALKVRQSTAAEGHHHHHH	soluble
MSLSCLFLQSAGEMLQNCAQSNCRIIPKKLRDMKREEICRLLADKVNKLKNKENSLSELLPDVRLLYGETPFARTPVMYEPGIIILFSGHKIGYINERVFRYDANEYLLLTVPLPFECETYATSEVPLAGLRLNVDILQLQELLMDIGEDEHFQPSMAASGINSATLSEEILCAAERLLDVMERPLDARILGKQIIREILYYVLTGPCGGALLALVSRQTHFSLISRVLKRIENKYTENLSVEQLAAEANMSVSAFHHNFKSVTSTSPLQYLKNYRLHKARMMIIHDGMKASAAAMRVGYESASQFSREFKRYFGVTPGEDAARMRAMQGNEGHHHHHH	soluble
MGSDKIHHHHHHMKTLKGPAIFLAQFIGDTPPFDKLETMAAWVSSLGYAGVQMPTGGADSFFDLALAAESQTYCDDIAGLLAEYGLEITELSTHLQGQLVAVHPAYDELFDGFAPPELRGKPKERQAWAVEQVKAAAVASRRLGLKAHATFSGSLAWPYLYPWPQRPAGLIEEAFAELGRRWKPILDVFDENGVDAAYEIHPGEDLHDGATFERFLDEVGGHPRANILYDPSHFVLQQLDYLAYIDRYHERIKAFHVKDAEFRPSARSGVYGGYQGWVDRPGRFRSLGDGQVDFKAIFSKLAQYDYDGWAVLEWECALKHPEQGAAEGAPFIRDHIIRVTDKAFDDFASAGSEAGRNRRLLGL	not soluble
MSLKIKDIKVIFTEPDNIRLIIVKILTDQDGLYGVGCATFTQRPNPVKYAIEDYLKPFLIGKEVSNIEDIWQSSYVSSYWRNGPVLNNALSGVDQALWDIKGKMANMPLYDLFGGKTREAAAVYVHSSGDSNEEVGDKMQAFIEQGFHHIRVQVSTPGYSTYGNKSAKAGDKTLNNNDPKLGPIPVTKRVKDYSDGKLYAHPGGVFEPKPYLRSALSLFEYIRDRFGYGIEILHDVHERIPPILGVWFAKEVEKYQLFFLEDLFSPEDNEYFSMVRAQSSTPIAMGELYSSPHEIIPMIKNRLIDFIRIHISDIGGLTPAKKIAAMGEIFGVRTAWHGPGDTSPIGHAANLALDLSCYNFGIQEYSIFGENTKEVFPGCPIVKKGMMWSNDKPGLGIDIDEKLAKKFPFKEREYGGAWDTVRRADGSMVKEGHHHHHH	not soluble
MGSDKIHHHHHHMVWRDAEGQVHALEDRCPHRGARLSLGWNLGDRVACWYHGVEVRADGVVADVPAVHECPMTGTKCLKSYPVIEQHGAIFIWFGIDANEQPAPLEFPEQLASEEWSSFLCQADWKVNHQYAIDNVMDPMHGTYLHCTSHSMAEGERTAEMKHRTTENGFVFEKEGQTGVNFDWVEYGSTGASWLRLSIPYRKQFGPGGEFWIVGYATPIDANNTRVFFWRCRKVSGWQRNVWRFLYRNHLEQLHWDVLEQDRIILENLAPNARAREFLYQHDVGLARLRRLMKKEAEKQLKKIAALNASNRIEMQEEAHG	not soluble
MLVLNPFSEKAVSPEDRDMVLRRGIAALDCSWKKVKKSSVIFQTARNHRSLPFLVAANPTNYGKPCILSTAEAVAATLYIVGLKDIASDIMSYFKWGPHFLDLNRELLEAYSRAENSLEVVEIQKKFIGGLEHHHHHH	soluble
EFGYSEMSAIGALIKALPESCALHLANSSVIRYAQLYQVPSTIEVCCNRGTSGIEGSLSTAVGYAAGSDKLNFIVIGDLSFFYDMNALWNINVRPNLRILLLNNGGGEIFHTLPGLDMSGTSHKYITAVHKTSAKGWAEERGFLYQRVENEEQLAEAMKTFTQPEAMEQPVLMEVFSN	not soluble
EDKYTDKYDNINLDEILANKRLLVAYVNCVMERGKCSPEGKELKEHLQDAIENGCKKCTENQEKGAYRVIEHLIKNEIEIWRELTAKYDPTGNWRKKYEDRAKAAGIVIPEE	soluble
MGHHHHHHSHMDGTRTSLDIEEYSDTEVQKNQVLTLEEWQDKWVNGKTAFHQEQGHQLLKKHLDTFLKGKSGLRVFFPLCGKAVEMKWFADRGHSVVGVEISELGIQEFFTEQNLSYSEEPITEIPGTKVFKSSSGNISLYCCSIFDLPRTNIGKFDMIWDRGALVAINPGDRKCYADTMFSLLGKKFQYLLCVLSYDPTKHPGPPFYVPHAEIERLFGKICNIRRLEKVDAFEERHKSWGIDCLFEKLYLLTEK	soluble
MKARKRKEQTFHEYFKEWVDLYKVGAIRSITLQKYYVTEQKIQELVPDLKIKDLDRYTYQQLLNSYAVTHEKQTTMDFHHHLKGAILDAVDEGVISQNPTRKIVIKGKTPRPKKAKFLNQFEVQALLKELNLKEDINWDWFILLIIKTGLRFSEALALTPSDFDFSKQKIIINKTWDYKMVTGSFQPTKNESSNRKIQIDWQLAMQFSQLIKMKDPDKPIFVKSRVFNSTINNRLKVLCENANIPTITVHSLRHTHASLLLFAGVSIASVANRLGHSSMTTTQETYLHIIQELENQDNDKIIRHLSMLM	not soluble
